We go through two molecules from PMC3926955 (The Journal of Cell Biology, 2014).

Substitutions are numbered along the chain they refer to. In names and notes the source's numbering stands.

The test deals with T1, GST-Pex3ΔN (aa 41–455, cytosolic domain) (P. pastoris, UniProt Q92262 41-455).
T1 sequence (looked up): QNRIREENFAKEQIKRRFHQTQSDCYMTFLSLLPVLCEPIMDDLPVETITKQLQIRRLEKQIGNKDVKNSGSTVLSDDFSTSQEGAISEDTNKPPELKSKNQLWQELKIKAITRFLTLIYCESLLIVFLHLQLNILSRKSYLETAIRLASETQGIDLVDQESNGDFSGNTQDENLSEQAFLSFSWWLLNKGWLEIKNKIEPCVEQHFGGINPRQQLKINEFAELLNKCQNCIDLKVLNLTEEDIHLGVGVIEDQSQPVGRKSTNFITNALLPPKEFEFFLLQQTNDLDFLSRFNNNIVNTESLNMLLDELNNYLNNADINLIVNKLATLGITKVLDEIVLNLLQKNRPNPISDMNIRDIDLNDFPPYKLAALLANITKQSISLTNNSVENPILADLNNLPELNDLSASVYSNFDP
Put plainly: pull-down.

B1: His-Atg37ΔC (WT) (domain or fragment, P. pastoris, UniProt C4R8D7 1-278, looked up)
chain: MSESIDRVFVKAIGTIRTLSSRTGYGGLPRPPIENRVKLYGLYKQATEGDVAGVMERPLGDSPEAEAAKRKWDAWRSEQGTSKTEAKRQYISYLIDTMKQFASDTTEARELLSELEYLWNQISDVSPNDSSDSESNAGPAQLLQNHAQLLSRDISVVDDPITSSGMDPMYNPSFQRHNSSRFINASTAERLNSLSNYYSNLNPTPPLSSRRYQGSVTPRNVDFIKWQNDINNSINKLNHDLQLLANRRLQSSASDPLYSKRGSDLTHDDFVNDISSSS
Consider B1, for which the binding result is given as “binds”.

B2: His-Atg37ΔC acbs mutant (Y40F K44A) (domain or fragment, P. pastoris, UniProt C4R8D7 1-278, looked up)
chain: B1 chain with Y40F, K44A
As to B2, the binding result is “binds”.
